Measurements from patent US20230167188A1 (BIOLOJIC DESIGN, published 2023).

Legend:
[1] = molecular target: T1, recombinant human TNFR2 with 6×his tag (human, UniProt P20333 23-257, limits assumed); assay: yeast surface display, TNFR2-His titrated, flow cytometry MFI
T1 construct: Bought (Reprokine, Israel); also called TNFR2-His; hTNFR2-His; not shown: 6xHis tag
T1 sequence (looked up): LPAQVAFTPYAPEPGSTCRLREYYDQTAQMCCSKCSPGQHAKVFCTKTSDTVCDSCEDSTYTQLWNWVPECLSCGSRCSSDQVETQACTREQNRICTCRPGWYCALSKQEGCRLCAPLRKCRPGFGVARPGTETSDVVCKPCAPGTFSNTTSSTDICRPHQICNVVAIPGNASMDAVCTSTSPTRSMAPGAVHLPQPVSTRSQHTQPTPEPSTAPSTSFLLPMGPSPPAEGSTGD
Procedure: To determine the effective concentration₅₀ (EC₅₀) of TNFR2 binding to yeast scFv or Fab clones (EC₅₀— TNFR2 binding), specific clones were labeled at TNFR concentrations ranging from 0.1 nM to 1000 nM and analyzed on an FACS. Median fluorescence intensity (MFI) was determined for each TNFR2 concentration and EC₅₀ (TNFR2 binding) was calculated using Prisma 8 GraphPad (GraphPad, San Diego, USA) software.

[2] = molecular target: T1, recombinant human TNFR2 with 6×his tag; assay: ELISA, IgG coated, hTNFR2-His titrated, anti-His-HRP
Procedure: (§1) IgG binding affinity to TNFR2 was examined by ELISA. 96 well plates (Greiner Bio-One high binding) were coated with (50 ng/well) of the analyzed antibody and incubated overnight at 4° C. The plates were then washed three times with 300 μl PBS buffer containing 0.05% Tween 20 (PBS-T), blocked with 300μ PBS-T supplemented with 1% to 2% BSA, and incubated for 1 hour at room temperature. Antibodies-coated plates were washed three times with 300 μl PBS-T and incubated with serial dilutions of test ligand hTNFR2-His (Reprokine, Israel) in a final volume of […] for 1-2 hours. Plates were then washed three times with 300 μl PBS-T and incubated with 50 μl anti-HIS-HRP (Santa Cruz Biotechnology, USA, SC-8036HRP) conjugate that was diluted 1:250 in PBS. After an additional wash step of six washes, the reaction was developed with […] tetramethylbenzidine (TMB) reagent (Southern biotech, USA), and stopped with […] 0.5N H₂SO₄. Detection was done on a Synergy LX BioTek (BioTek, USA) plate reader with an absorbance filter set to […]. The binding affinity was determined by fitting the data to a specific binding non-linear regression model on Prisma 8 GraphPad software.
(§2) To test binding affinity of clones reformatted as IgG1 and IgG1LALA to TNFR2, an ELISA EC₅₀ binding experiment was conducted for each antibody.

[3] = molecular target: T1, recombinant human TNFR2 with 6×his tag; assay: ELISA, IgG coated, soluble TNFR2-His titrated
Procedure: as §1, §2

B1: CID_437 (scFv)
scFv: DIQMTQSPILLSASVGDRVTITCRASQDVSTAVAWSQQRTNGSPRLLIYSASSLYSGVPSRFSGSRSGTDFTLTISSLQPEDIADYYCQQPPYTPPTFGAGTKVEIKEVQLVESGGGLVQPGGSLRLSCAASGFNIRDTFIHWVRQSPGKGLEWVADIDPDNGDTRYADSVKGRFTISADTSKNTAYLQMNSLRAEDTAIYYCSREGEDGYNAWDLWGQGTLVTVSS
B1 showed an EC50 [1] of 1.2 nM.

B2: CID_251 (scFv)
scFv: EVQLVQSGAEVKKPGSSVKVSCKASGDTFTSYSFNWVRQAPGQGLEWMGRIITILDDTEYAPHLQGRVTITADKSTSTVYLELRNLRSDDTAVYFCAGVYEGPNSEGSYDDYGFLKHWGQGTLVTVSSDIVMTQSPATLSVSPGERATLSCRASESVANDLAWYQQKPGQVPRLLIYGASTRATGVPARFSGSGSGAEFTLTISSLQSEDFAVYYCQQYANWPPRETFGQGTRLEIK
Work on B2 yielded an EC50 [1] of 1 nM.

B3: BDG30.080 (antibody, human IgG1, kappa, V domains shown)
VH: EVQLVESGGGLVQPGGSLRLSCAASGFNIRAMYIHWVRQSPGKGLEWVADIDPTNGDTRYADSVKGRFTISADTSKNTAYLQMNSLRAEDTAIYYCTREGQDGYNAFDKWGQGTLVTVSS
VL: DIQMTQSPILLSASVGDRVTITCRASQDVSTAVAWSQQRTNGSPRLLIYSASSLYSGVPSRFSGSRSGTDFTLTISSLQPEDIADYYCQQHRYTPPTFGAGTKVEIKR
notes: Human IgG1; also called IgG of CID_229
For B3, the EC50 [2] was 66.3 nM and the EC50 [3] was 66 nM.
